Data reported in publication PMC8176221, “Identification and Characterization of Two Transmembrane Proteins Required for Virulence of Ustilago maydis” (Frontiers in Plant Science, 2021).

Molecular target: the molecule itself
Experiment: SEC; Vmp2 on a Superose 6 Increase 10/300 column in SEC buffer with 0.03% DDM

B1: Vmp2 (virulence-associated membrane protein 2), full length without the signal peptide (natural protein)
chain: AESQCEERNDYSRKRPSHKPFTSHQNKQDRSCSSPLPSESCSTSAITPSDSAVRDTSLSRRGLPGMPGDIEWMGFYGSLLAVPTMLSILGIITNYNLGKSYYNSELNAQYYKQSREMLRAHTAKLIQDQEKKFANAGVSWNGMVYGKDGQVNPGAKLPEWNGRVLGGTVANPKSQPVPGSGGAVQGAAAGVGGGTTAGVAAGAGAASAGTGPAQVGGATAGGAGAEAQTGTGAIATGTGTGGAGDAGGSAPVSSGAEQGDAEAGDEARGSEERGDDGTEDRRGGQSEGDDDSDSDGNDEGDAGDAGDAGDA
notes: Vmp2 (UMAG_01689) of Ustilago maydis SG200, a protein of 335 aa, cloned from genomic DNA without the signal peptide (25 aa as predicted by SignalP-5.0); one TM helix at residues 100-115; The methods say that the Mistics-tag was cleaved off with TEV before SEC; also called UMAG_01689; full length Vmp2; source: E. coli OverExpress C43 (DE3), purified (membrane fraction solubilised with DDM, Ni-NTA, …)
stoichiometry N: 2
